Reference: patent US20220227882A1 (TRUSTEES OF TUFTS COLLEGE, published 2022)

T1: Recombinant human ADAM15 (Sino Biological, 10517-H08H) (human, UniProt Q13444 18-696)
T1 sequence (looked up): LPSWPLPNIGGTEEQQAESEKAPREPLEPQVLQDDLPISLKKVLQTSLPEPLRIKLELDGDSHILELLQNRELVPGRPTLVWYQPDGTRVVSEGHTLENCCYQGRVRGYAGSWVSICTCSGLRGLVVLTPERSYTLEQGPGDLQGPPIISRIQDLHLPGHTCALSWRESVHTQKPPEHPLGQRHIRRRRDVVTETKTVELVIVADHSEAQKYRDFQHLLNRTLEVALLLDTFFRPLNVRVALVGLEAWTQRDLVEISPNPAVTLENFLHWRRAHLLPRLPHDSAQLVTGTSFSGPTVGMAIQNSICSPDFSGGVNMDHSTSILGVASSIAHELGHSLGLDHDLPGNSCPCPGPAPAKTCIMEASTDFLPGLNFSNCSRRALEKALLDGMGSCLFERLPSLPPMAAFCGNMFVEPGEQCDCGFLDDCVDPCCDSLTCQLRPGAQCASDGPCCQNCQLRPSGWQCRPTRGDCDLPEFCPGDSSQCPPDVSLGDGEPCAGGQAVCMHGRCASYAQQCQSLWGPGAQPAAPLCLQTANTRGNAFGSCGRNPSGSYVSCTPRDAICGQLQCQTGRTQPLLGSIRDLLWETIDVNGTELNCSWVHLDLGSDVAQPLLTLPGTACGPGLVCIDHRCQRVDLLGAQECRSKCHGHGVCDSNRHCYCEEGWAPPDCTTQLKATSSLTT

T2: E444A (Homo sapiens, UniProt P78325)
T2 construct: expressed on HEK293 cells; also called human ADAM8 point mutant E444A
T2 sequence (ADAM8, looked up): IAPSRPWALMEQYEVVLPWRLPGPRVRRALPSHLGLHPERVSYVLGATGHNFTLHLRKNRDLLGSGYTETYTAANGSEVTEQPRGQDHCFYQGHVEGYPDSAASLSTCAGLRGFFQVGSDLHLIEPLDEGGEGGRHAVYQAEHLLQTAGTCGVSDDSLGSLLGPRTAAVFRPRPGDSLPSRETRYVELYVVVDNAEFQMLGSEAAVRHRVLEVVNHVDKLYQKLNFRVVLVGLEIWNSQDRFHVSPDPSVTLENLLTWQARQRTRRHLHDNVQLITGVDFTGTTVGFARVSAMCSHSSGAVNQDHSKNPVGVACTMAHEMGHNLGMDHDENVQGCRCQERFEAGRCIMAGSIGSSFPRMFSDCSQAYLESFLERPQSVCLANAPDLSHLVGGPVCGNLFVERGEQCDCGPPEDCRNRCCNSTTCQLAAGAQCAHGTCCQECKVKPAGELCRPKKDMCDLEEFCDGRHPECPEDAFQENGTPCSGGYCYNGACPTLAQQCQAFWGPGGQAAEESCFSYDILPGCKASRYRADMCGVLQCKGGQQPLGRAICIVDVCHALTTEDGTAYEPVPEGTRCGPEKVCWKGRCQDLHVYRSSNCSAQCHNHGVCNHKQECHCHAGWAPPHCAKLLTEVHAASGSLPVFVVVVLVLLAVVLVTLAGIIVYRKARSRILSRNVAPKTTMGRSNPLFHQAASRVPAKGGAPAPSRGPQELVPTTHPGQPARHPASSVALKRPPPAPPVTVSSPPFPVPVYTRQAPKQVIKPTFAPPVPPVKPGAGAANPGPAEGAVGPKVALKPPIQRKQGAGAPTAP


How the values were obtained:
[1] = target: T1, Recombinant human ADAM15 (Sino …); assay: ELISA, recombinant ADAM15
Procedure: ELISA assays were also used to test hybridoma clones, subclones and purified ADP antibodies for specificity of ADAM8 binding, i.e., binding to rHuADAM8 (Acro Biosystems, AD8-H5223) was compared to binding to closely related recombinant human ADAM proteins: […], ADAM12 (Acro Biosystems, AD2-H5228) and ADAM15 (Sino Biological, 10517-H08H). For analysis of clones and subclones, 50 μl of cell supernatants were used. A test bleed sample (1:1000) was used as a positive control. Hybridoma culture medium or a pre-bleed serum sample (1:1000) was used as a negative control. Purified mouse ADPs were assessed at 1 μg/ml vs normal mouse IgG and with a test bleed sample as a positive control. ADP binding was detected with a goat anti-mouse IgG (Fc specific)-peroxidase antibody (1:5000, Sigma-Aldrich, A0168).

E444A = target: T2, E444A; assay: high-throughput flow cytometry, HEK293 cells with mutant ADAM8, high stringency; range in parentheses; closed box
Procedure: A variety of experimental parameters were optimized for high-throughput flow cytometry including blocking buffer, and primary and secondary antibody concentrations, to identify the optimal conditions for screening. Through these studies ADP2 and ADP13 were determined to be high affinity binding antibodies.
Thus, for these studies antigen-binding fragments (Fabs) of ADP2 and ADP13, which bind with lower affinity than the full antibody, were generated. In addition, higher binding stringency conditions were tested, such as increased pH, salinity, and temperature, and/or increased washing, to weaken binding sufficiently to allow identification of critical binding residues in flow cytometry. The final experimental flow cytometry conditions were: primary antibody incubation with ADP2 Fab (0.50 μg/ml), ADP13 Fab (5.00 μg/ml) and Control Ab (0.16 μg/ml) for 60 minutes in flow cytometry buffer containing 10% goat serum in PBS (Ca²⁺ and Mg²⁺ free). […] Samples were washed three times after primary antibody incubation and twice after secondary antibody incubation with PBS (Ca²⁺ and Mg′ free). Next, HEK293 cells expressing WT or mutated ADAM8 proteins or EV DNA were incubated with ADP2 or ADP13 Fabs or Control Ab at their optimal concentrations. Fab binding was detected using Alexa Fluor 488-conjugated secondary antibodies and mean cellular fluorescence determined using the Intellicyt iQue flow cytometry platform. […] This counter-screen strategy facilitates the exclusion of mutants that are locally misfolded or that have an expression defect. Binding of each test Fab to each mutant clone in the alanine scanning library was determined, in duplicate, by high-throughput flow cytometry.

Binder	binding result [1]	Binding Reactivity (% WT) (E444A)
ADP2 (antibody, V domains shown, also called mADP2; mouse ADP2) VH: EVKLVESGGGLVQPGGSLSLSCAASGFSFPDYYMSWVRQPPGKALEWLGFIRDSANGYTTEYIASVKGRFTFSRDNSQSILYLQMNALRAEDSATYYCARYSRYYGMDYWGQGTSVTVSS VL: SIVMTQTPKILLVSAGDRVTITCKASQTVNYDVAWYQQKPGQSPKPVIYFASNRYTGVPDRFTGSGFGTDFTFTISTVQAEDLAVYFCQQDYSAPWTFGGGTKLEIK	no binding (tested: 1 µg/ml)	
ADP2 Fab (Fab, V domains shown) VH: EVKLVESGGGLVQPGGSLSLSCAASGFSFPDYYMSWVRQPPGKALEWLGFIRDSANGYTTEYIASVKGRFTFSRDNSQSILYLQMNALRAEDSATYYCARYSRYYGMDYWGQGTSVTVSS VL: SIVMTQTPKILLVSAGDRVTITCKASQTVNYDVAWYQQKPGQSPKPVIYFASNRYTGVPDRFTGSGFGTDFTFTISTVQAEDLAVYFCQQDYSAPWTFGGGTKLEIK		17.6
